Experimental data: patent publication US20250152729A1 (CANCER RESEARCH TECHNOLOGY, published 2025)
Changes are numbered by the printed parent chain. Numbers in names are those of the source.

T1: recombinant cynomolgus SEMA4A AviHis10, biotinylated (cynomolgus, UniProt Q9H3S1 32-677 (human entry), biotin on the Avi tag (BirA))
T1 construct: The text says amino acids 32-679 of G7NV79 with C-terminal Avi tag and His10 tag; also called Cyno SEMA4A AviHis10; cynoSEMA4A
T1 chain: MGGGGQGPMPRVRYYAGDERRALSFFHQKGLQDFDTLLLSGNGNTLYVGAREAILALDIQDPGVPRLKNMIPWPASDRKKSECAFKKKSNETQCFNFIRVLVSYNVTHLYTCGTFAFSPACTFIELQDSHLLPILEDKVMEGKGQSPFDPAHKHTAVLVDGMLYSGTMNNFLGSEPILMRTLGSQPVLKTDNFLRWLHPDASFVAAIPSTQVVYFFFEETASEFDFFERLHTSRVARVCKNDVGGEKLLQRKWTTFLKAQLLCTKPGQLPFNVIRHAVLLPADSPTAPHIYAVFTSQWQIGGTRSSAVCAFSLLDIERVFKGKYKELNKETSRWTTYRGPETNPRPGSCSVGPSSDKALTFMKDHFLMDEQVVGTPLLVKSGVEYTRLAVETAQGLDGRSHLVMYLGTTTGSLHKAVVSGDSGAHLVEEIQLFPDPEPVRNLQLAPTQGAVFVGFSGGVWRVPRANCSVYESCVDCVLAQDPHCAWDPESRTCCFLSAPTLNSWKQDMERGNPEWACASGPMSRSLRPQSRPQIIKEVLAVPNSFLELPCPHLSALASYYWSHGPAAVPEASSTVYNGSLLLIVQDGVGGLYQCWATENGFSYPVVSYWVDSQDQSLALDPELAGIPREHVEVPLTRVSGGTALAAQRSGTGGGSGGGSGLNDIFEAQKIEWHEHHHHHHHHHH

T2: cynomolgus SEMA4A expressed on expi293 cells (UniProt ID G7NV79) (cynomolgus, UniProt Q9H3S1 33-761 (human entry))
T2 construct: Transient transfection in expi293 cells; also called cyno SEMA4A
T2 chain: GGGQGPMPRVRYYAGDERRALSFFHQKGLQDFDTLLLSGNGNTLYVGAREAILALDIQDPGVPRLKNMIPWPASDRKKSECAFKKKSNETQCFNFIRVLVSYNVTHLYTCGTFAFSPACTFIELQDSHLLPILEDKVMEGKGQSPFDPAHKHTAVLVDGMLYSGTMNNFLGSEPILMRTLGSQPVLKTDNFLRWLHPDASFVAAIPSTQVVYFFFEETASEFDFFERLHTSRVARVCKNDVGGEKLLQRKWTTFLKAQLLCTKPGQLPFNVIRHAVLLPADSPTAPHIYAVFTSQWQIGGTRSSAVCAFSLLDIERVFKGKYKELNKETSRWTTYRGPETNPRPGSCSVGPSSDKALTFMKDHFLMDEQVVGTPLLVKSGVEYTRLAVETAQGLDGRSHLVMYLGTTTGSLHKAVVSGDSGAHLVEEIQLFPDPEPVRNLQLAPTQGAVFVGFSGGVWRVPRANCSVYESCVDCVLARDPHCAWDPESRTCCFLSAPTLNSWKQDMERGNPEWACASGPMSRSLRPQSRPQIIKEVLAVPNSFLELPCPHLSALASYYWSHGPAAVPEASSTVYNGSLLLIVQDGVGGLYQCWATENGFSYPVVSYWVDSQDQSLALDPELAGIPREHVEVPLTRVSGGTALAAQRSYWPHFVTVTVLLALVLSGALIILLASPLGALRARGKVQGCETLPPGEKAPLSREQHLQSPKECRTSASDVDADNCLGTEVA

B1: mouse 5E3 expressed as human IgG1 Alya (antibody, V domains shown)
VH: QVQLQQPGAELVMPGASVKMSCKASGYTFTDYWMHWVKQRPGQGLEWIGAIDTSDSYTSYNQKFKGKATLTVDESSSTAYMQLSSLTSEDSAVYYCARDYGNFYYYAMDYWGQGTSVTVSS
VL: QAVVTQESALTTSPGETVTLTCRSSTGAVTTSNYANWVQEKPDHLFTGLIGGTNNRAPGVPARFSGSLIGDKAALTITGAQTEDEAIYFCALWYSNHWVFGGGTKLTVL
notes: Mouse variable domains on human IgG1 Alya constant (pEU1.22; 239iCys and S442C, EU numbering); purified, unconjugated; also called 5E3 IgG1 Alya
B2: C0120905 human Alya IgG1 (antibody, V domains shown)
VH: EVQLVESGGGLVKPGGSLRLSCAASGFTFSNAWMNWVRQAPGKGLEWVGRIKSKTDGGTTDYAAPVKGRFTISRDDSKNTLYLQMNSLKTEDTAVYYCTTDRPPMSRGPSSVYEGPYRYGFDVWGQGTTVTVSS
VL: NFMLTQPHSVSESPGKTVTISCTGSGGNIVDNFVQWHQQRPGSAPRTVIYEDDQRPSGVPDRFSASVDSSSNSGTLSISGLKTEDEADYYCQSYDGANRWVFGGGTKLTVL
notes: Fully human, phage display derived; human IgG1 Alya constant (239iCys, S442C, EU); unconjugated
B3: C0120906 human Alya IgG1 (antibody, V domains shown)
VH: EVQLVQSGPEVKKPGASVKISCKASGYKLNDPGVHGVSWVRQAPGQGLEWMGWISTLNGDTRYAQKFQGRVTMATDSSTSTIYMDLRSLKSDDTALYYCARDDYTAIFDFWGRGTLVTVSS
VL: QSVLTQPPSVSVAPGQTASITCGGSNIGSQSVHWYQQKPGQAPVLVVYDDSDRPSGIPERFSGSKSGNTASLILSRVEAGDEADYYCQVWDSSTDHHVFGTGTKVTVL
notes: as for B2
B4: C0120903 human Alya IgG1 (antibody, V domains shown)
VH: EVQLVQSGAEVKKPGSSMKVSCKASGGTFNSYTINWVRQAPGQGLEWVGGFIPIFGTADYAQKFHGRVAITADESMSTAYMELSSLRSEDTAVYYCARAPLGSEPFDYWGQGTMVTVSS
VL: SYVLTQPPSVSVAPGQTARITCGGNNIGSKSVHWYQQKPGQAPVLVVYDDSDRPSGIPERFSGSNSGNTATLTISRVEAGDEADYYCQVWDSSSDHLVFGGGTKLTVL
notes: as for B2
B5: C0120914 human Alya IgG1 (antibody, V domains shown)
VH: QVQLQESGPGLVKPSETLSLTCTVSGGSVSSGRYDWSWIRQPPGKGLEWIGHIYYTGITDYNPSLRSRVTISADKPKNQFSLKLNSVTAADTAVYYCARGPFFDPWGQGTMVTVSS
VL: QSVLTQPPSVSVAPGQTASLTCGANNIGSKSVQWYQQKPGQAPVLVVYDGSDRPSGIPDRFSGSSSENTATLTISRVEAGDEADYYCQLWDSVTDRPVFGGGTKVTVL
notes: as for B2
B6: C0120917 human Alya IgG1 (antibody, V domains shown)
VH: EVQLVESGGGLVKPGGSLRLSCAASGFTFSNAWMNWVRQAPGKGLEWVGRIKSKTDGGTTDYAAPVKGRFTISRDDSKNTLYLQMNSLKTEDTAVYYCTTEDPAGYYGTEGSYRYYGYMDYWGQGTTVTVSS
VL: NFMLTQPHSVSESPGKTVTISCTASGDTLDNKYVNWYQVRPGSAPATLIFHYEERDSGVPDRFSGSFDASSNSASLTISGLQTADEADYFCQSYDSKRDNLVVFGGGTKVTVL
notes: as for B2
B7: 5Hg2-5Lg1 human Alya IgG1 (antibody, V domains shown)
VH: QVQLVQSGAEVKKPGASVKVSCKASGYTFTDYWMHWVRQAPGQRLEWMGAIDTSDSYTSYNQKFKGRVTITRDTSASTAYMELSSLRSEDTAVYYCARDYGNFYYYAMDYWGQGTLVTVSS
VL: QAVVTQEPSLTVSPGGTVTLTCRSSTGAVTTSNYANWFQQKPGQAPRTLIYGTNNRAPWTPARFSGSLLGGKAALTLSGAQPEDEAEYYCALWYSNHWVFGGGTKLTVL
notes: Humanised 5E3; human IgG1 Alya constant (239iCys, S442C, EU), lambda light chain; purified, unconjugated
B8: 5Hg1-5Lg1 human Alya IgG1 (antibody, V domains shown)
VH: B7 VH with R44G, I70M, A76T, A79V
VL: B7 VL
notes: as for B7
B9: 5Hg1-5Lg2 human Alya IgG1 (antibody, V domains shown)
VH: B7 VH with R44G, I70M, A76T, A79V
VL: B7 VL with S78L
notes: as for B7
B10: 5Hg2-5Lg2 human Alya IgG1 (antibody, V domains shown)
VH: B7 VH
VL: B7 VL with S78L
notes: as for B7
B11: 5Hg2-5Lg3 human Alya IgG1 (antibody, V domains shown)
VH: B7 VH
VL: QTVVTQEPSFSVSPGGTVTLTCRSSTGAVTTSNYANWYQQTPGQAPRTLIYGTNNRAPGVPDRFSGSILGNKAALTITGAQADDESDYYCALWYSNHWVFGGGTKLTVL
notes: as for B7
B12: 5Hg4-5Lg5 human Alya IgG1 (antibody, V domains shown)
VH: QVQLVQSGSELKKPGASVKVSCKASGYTFTDYWMHWVRQAPGQGLEWMGAIDTSDSYTSYNQKFKGRFVFSLDTSVSTAYLQICSLKAEDTAVYYCARDYGNFYYYAMDYWGQGTLVTVSS
VL: QSVVTQPPSVSGAPGQRVTISCRSSTGAVTTSNYANWYQQLPGTAPKLLIYGTNNRAPGVPDRFSGSKSGASASLAITGLQAEDEADYYCALWYSNHWVFGGGTKLTVL
notes: as for B7
B13: 5Hg4-5Lg4 human Alya IgG1 (antibody, V domains shown)
VH: B12 VH
VL: B12 VL with V3A, V4L, A13S, R17S, L41P, L49M, A71N, S72T, A76T, T78S
notes: as for B7
B14: 5Hg4-5Lg1 human Alya IgG1 (antibody, V domains shown)
VH: B12 VH
VL: B7 VL
notes: as for B7
B15: 5Hg4-5Lg2 human Alya IgG1 (antibody, V domains shown)
VH: B12 VH
VL: B7 VL with S78L
notes: as for B7
B16: 5Hg5-5Lg2 human Alya IgG1 (antibody, V domains shown)
VH: EVQLVQSGAEVKKPGESLRISCKGSGYSFTDYWMHWVRQMPGKGLEWMGAIDTSDSYTSYNQKFKGQVTISADKSISTAYLQWSSLKASDTAMYYCARDYGNFYYYAMDYWGQGTLVTVSS
VL: B7 VL with S78L
notes: Humanised 5E3; human IgG1 Alya constant (239iCys, S442C, EU), lambda light chain; purified, unconjugated; also called 5HE5/5Lg2
B17: 5Hg2-5Lg6 human Alya IgG1 (antibody, V domains shown)
VH: B7 VH
VL: SYELTQPSSVSVSPGQTARITCRSSTGAVTTSNYANWFQQKPGQAPVLVIYGTNNRAPGIPERFSGSSSGTTVTLTISGAQVEDEADYYCALWYSNHWVFGGGTKLTVL
notes: as for B7

Biological target: T1, recombinant cynomolgus SEMA4A AviHis10, …
Test: BLI (OctetRED), biotinylated SEMA4A on streptavidin tip, IgG as analyte, 1:1 model; KD(observed) IgG
Description: An Octet Kinetics buffer (PBS containing 0.01% (v/v) BSA and 0.002% (v/v) Tween20) is typically used as the diluent buffer for the analyte samples and as the flow buffer during the dissociation phase. The experimental data is recorded as shift in interference pattern (nm) over time, which is directly proportional to the optical thickness at the biosensor tip, which in turn is an approximate measure of the mass of analyte bound. The proprietary Octet Data Analysis software package can then be used to process data and fit binding models to the data sets. Returned association (ka, M-1 s-1) and dissociation (kd, s-1) rate constants allow calculation of dissociation (KD, M) affinity constants.
The affinity of binding between the analytes (humanised and phage display derived IgGs as human Alya IgG1s and Fabs) and human SEMA4A and cynomolgus SEMA4A, was estimated using assays in which the biotinylated SEMA4A antigen was captured on a streptavidin sensor tip. A fresh sensor tip was used for each measurement and no regeneration was used. A series of dilutions of the lead Fabs and human Alya IgG1s (3.25-240 nM) were individually placed in contact with the ligand surface for a sufficient amount of time to observe sensorgrams that could be fitted to an appropriate binding model with confidence (typically 5 minutes), followed by an appropriate length of dissociation time (typically 10 minutes). Blank reference (0 nM analyte) data were subtracted from each dataset to reduce the impact of any buffer artefacts or non-specific binding effects. A 1:1 binding model was then fitted simultaneously to the data from each analyte titration using the Octet Evaluation software (Table 8).

Binder | Kd
B1 | ≤ 1 nM
B2 | 9 nM
B3 | 2 nM
B4 | 20 nM
B5 | 97 nM
B6 | 6 nM

Biological target: T2, cynomolgus SEMA4A expressed on expi293 …
Test: Mirrorball direct binding, dilution series on expi293 cells transiently transfected with cyno SEMA4A, anti-human Alexa Fluor 647
From the text: Hits from the primary screening were re-formatted into the human Alya IgG1 vector and re-expressed and purified as described in section 4.1. In addition, a single clone was identified that contained an Asparagine deamidation motif (Asn Gly) within its VHCDR2. This potential sequence liability was de-risked by synthesising de novo two clonal variant VH genes (Asn Ala and Gln Gly) and cloning these sequences into the human Alya IgG1 expression vector. To determine the specificity profile of each purified human Alya IgG1, a dilution series was tested for binding to human SEMA4A, mouse SEMA4A, cyno SEMA4A, human SEMA4B and mock transfected cells (transient transfections set up in expi 293 cells.) The five assays employed methods described in section 2.3, using the appropriate cells and substituting the un-purified scFv periplasmic preparation with the recombinant human Alya IgG1 dilution series. Data was analysed as Count x median mean intensity (x FLU).

Binder | binding result
B7 | binds
B8 | binds
B9 | binds
B10 | binds
B11 | binds
B12 | binds
B13 | binds
B14 | binds
B15 | binds
B16 | binds
B17 | binds
